Test results as given in US20110171218A1.

Biological target: TNF-alpha
Assay: cell-based or functional assay
Parameters: unit not given beside the values

Chain of TNFR2-h(1)Fc (chain): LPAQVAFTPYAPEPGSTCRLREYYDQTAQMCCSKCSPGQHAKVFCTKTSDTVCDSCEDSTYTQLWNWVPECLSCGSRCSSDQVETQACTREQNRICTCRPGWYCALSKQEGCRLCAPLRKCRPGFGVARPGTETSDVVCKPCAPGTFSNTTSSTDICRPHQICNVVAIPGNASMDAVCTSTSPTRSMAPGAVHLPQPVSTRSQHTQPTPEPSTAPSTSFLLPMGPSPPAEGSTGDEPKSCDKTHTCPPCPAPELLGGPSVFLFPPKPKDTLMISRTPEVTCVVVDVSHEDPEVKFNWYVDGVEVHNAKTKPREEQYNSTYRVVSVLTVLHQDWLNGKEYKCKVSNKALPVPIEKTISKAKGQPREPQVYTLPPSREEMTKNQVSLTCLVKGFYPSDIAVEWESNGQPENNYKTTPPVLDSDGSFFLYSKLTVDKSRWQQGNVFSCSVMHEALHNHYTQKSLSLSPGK

IC50 (WEHI Assay), normalized (normalized to TNFR2-h(1)Fc wt)	Substance
0.25	E155N S202N G253N TNFR2-h(1)Fc (Fc fusion)
1.6	D47N/E155N TNFR2-h(1)Fc (Fc fusion)
1	TNFR2-h(1)Fc (Fc fusion)
0.29	T203N P205S TNFR2-h(1)Fc (Fc fusion)
0.57	E155N G253N TNFR2-h(1)Fc (Fc fusion)
1.1	D47N S202N TNFR2-h(1)Fc (Fc fusion)
0.23	S202N G253N TNFR2-h(1)Fc (Fc fusion)
1.9	D47N TNFR2-h(1)Fc (Fc fusion)
3	D47N/G253N TNFR2-h(1)Fc (Fc fusion)
0.25	T222N TNFR2-h(1)Fc (Fc fusion)
